# Test results published in ChEMBL document CHEMBL1143427, “Interactions of ceftobiprole with beta-lactamases from molecular classes A to D” (Antimicrob Agents Chemother, 2007).
# Legend:
# [1] = substrate: CC(C)(O/N=C(\C(=O)N[C@@H]1C(=O)N2C(C(=O)[O-])=C(C[n+]3ccccc3)CS[C@H]12)c1csc(N)n1)C(=O)O; experiment: (§1) Activity of Serratia marcescens AmpC assessed as drug hydrolysis by spectrophotometry
# [2] = substrate: CC1(C)S[C@@H]2[C@H](NC(=O)Cc3ccccc3)C(=O)N2[C@H]1C(=O)O; experiment: as §1
# [3] = substrate: CO/N=C(\C(=O)N[C@@H]1C(=O)N2C(C(=O)[O-])=C(C[N+]3(C)CCCC3)CS[C@H]12)c1csc(N)n1; experiment: as §1
# [4] = substrate: Nc1nc(/C(=N/O)C(=O)N[C@@H]2C(=O)N3C(C(=O)O)=C(/C=C4\CCN([C@@H]5CCNC5)C4=O)CS[C@H]23)ns1; experiment: as §1
# [5] = substrate: O=C(Cc1cccs1)N[C@@H]1C(=O)N2C(C(=O)O)=C(/C=C/c3ccc([N+](=O)[O-])cc3[N+](=O)[O-])CS[C@H]12; experiment: as §1
# [6] = substrate: O=C(Cc1cccs1)N[C@@H]1C(=O)N2C(C(=O)[O-])=C(C[n+]3ccccc3)CS[C@H]12; experiment: as §1
# [7] = substrate: CC(C)(O/N=C(\C(=O)N[C@@H]1C(=O)N2C(C(=O)[O-])=C(C[n+]3ccccc3)CS[C@H]12)c1csc(N)n1)C(=O)O; experiment: (§2) Ratio of Kcat to Km of Serratia marcescens AmpC assessed as drug hydrolysis by spectrophotometry
# [8] = substrate: CC1(C)S[C@@H]2[C@H](NC(=O)Cc3ccccc3)C(=O)N2[C@H]1C(=O)O; experiment: as §2
# [9] = substrate: CO/N=C(\C(=O)N[C@@H]1C(=O)N2C(C(=O)[O-])=C(C[N+]3(C)CCCC3)CS[C@H]12)c1csc(N)n1; experiment: as §2
# [10] = substrate: Nc1nc(/C(=N/O)C(=O)N[C@@H]2C(=O)N3C(C(=O)O)=C(/C=C4\CCN([C@@H]5CCNC5)C4=O)CS[C@H]23)ns1; experiment: as §2
# [11] = substrate: O=C(Cc1cccs1)N[C@@H]1C(=O)N2C(C(=O)O)=C(/C=C/c3ccc([N+](=O)[O-])cc3[N+](=O)[O-])CS[C@H]12; experiment: as §2
# [12] = substrate: O=C(Cc1cccs1)N[C@@H]1C(=O)N2C(C(=O)[O-])=C(C[n+]3ccccc3)CS[C@H]12; experiment: as §2
# [13] = substrate: CC(C)(O/N=C(\C(=O)N[C@@H]1C(=O)N2C(C(=O)[O-])=C(C[n+]3ccccc3)CS[C@H]12)c1csc(N)n1)C(=O)O; conditions: Escherichia coli
# [14] = substrate: CC1(C)S[C@@H]2[C@H](NC(=O)Cc3ccccc3)C(=O)N2[C@H]1C(=O)O; conditions: Escherichia coli
# [15] = substrate: CO/N=C(\C(=O)N[C@@H]1C(=O)N2C(C(=O)[O-])=C(C[N+]3(C)CCCC3)CS[C@H]12)c1csc(N)n1; conditions: Escherichia coli
# [16] = substrate: Nc1nc(/C(=N/O)C(=O)N[C@@H]2C(=O)N3C(C(=O)O)=C(/C=C4\CCN([C@@H]5CCNC5)C4=O)CS[C@H]23)ns1; conditions: Escherichia coli
# [17] = substrate: O=C(Cc1cccs1)N[C@@H]1C(=O)N2C(C(=O)[O-])=C(C[n+]3ccccc3)CS[C@H]12; conditions: Escherichia coli
# [18] = substrate: CC(C)(O/N=C(\C(=O)N[C@@H]1C(=O)N2C(C(=O)[O-])=C(C[n+]3ccccc3)CS[C@H]12)c1csc(N)n1)C(=O)O; conditions: Escherichia coli; remark: listed apart in the source
# [19] = substrate: CC1(C)S[C@@H]2[C@H](NC(=O)Cc3ccccc3)C(=O)N2[C@H]1C(=O)O; conditions: Escherichia coli; remark: listed apart in the source
# [20] = substrate: CO/N=C(\C(=O)N[C@@H]1C(=O)N2C(C(=O)[O-])=C(C[N+]3(C)CCCC3)CS[C@H]12)c1csc(N)n1; conditions: Escherichia coli; remark: listed apart in the source
# [21] = substrate: Nc1nc(/C(=N/O)C(=O)N[C@@H]2C(=O)N3C(C(=O)O)=C(/C=C4\CCN([C@@H]5CCNC5)C4=O)CS[C@H]23)ns1; conditions: Escherichia coli; remark: listed apart in the source
# [22] = substrate: O=C(Cc1cccs1)N[C@@H]1C(=O)N2C(C(=O)[O-])=C(C[n+]3ccccc3)CS[C@H]12; conditions: Escherichia coli; remark: listed apart in the source
# [23] = substrate: CC(C)(O/N=C(\C(=O)N[C@@H]1C(=O)N2C(C(=O)[O-])=C(C[n+]3ccccc3)CS[C@H]12)c1csc(N)n1)C(=O)O; experiment: (§3) Activity of Klebsiella oxytoca beta-lactamase K1assessed as drug hydrolysis by spectrophotometry
# [24] = substrate: CC1(C)S[C@@H]2[C@H](NC(=O)Cc3ccccc3)C(=O)N2[C@H]1C(=O)O; experiment: as §3
# [25] = substrate: CO/N=C(\C(=O)N[C@@H]1C(=O)N2C(C(=O)O)=C(COC(C)=O)CS[C@H]12)c1csc(N)n1; experiment: as §3
# [26] = substrate: CO/N=C(\C(=O)N[C@@H]1C(=O)N2C(C(=O)[O-])=C(C[N+]3(C)CCCC3)CS[C@H]12)c1csc(N)n1; experiment: as §3
# [27] = substrate: Nc1nc(/C(=N/O)C(=O)N[C@@H]2C(=O)N3C(C(=O)O)=C(/C=C4\CCN([C@@H]5CCNC5)C4=O)CS[C@H]23)ns1; experiment: as §3
# [28] = substrate: O=C(Cc1cccs1)N[C@@H]1C(=O)N2C(C(=O)[O-])=C(C[n+]3ccccc3)CS[C@H]12; experiment: as §3
# [29] = substrate: CC(C)(O/N=C(\C(=O)N[C@@H]1C(=O)N2C(C(=O)[O-])=C(C[n+]3ccccc3)CS[C@H]12)c1csc(N)n1)C(=O)O; experiment: (§4) Ratio of Kcat to Km of Klebsiella oxytoca beta-lactamase K1 assessed as drug hydrolysis by spectrophotometry
# [30] = substrate: CC1(C)S[C@@H]2[C@H](NC(=O)Cc3ccccc3)C(=O)N2[C@H]1C(=O)O; experiment: as §4
# [31] = substrate: CO/N=C(\C(=O)N[C@@H]1C(=O)N2C(C(=O)O)=C(COC(C)=O)CS[C@H]12)c1csc(N)n1; experiment: as §4
# [32] = substrate: CO/N=C(\C(=O)N[C@@H]1C(=O)N2C(C(=O)[O-])=C(C[N+]3(C)CCCC3)CS[C@H]12)c1csc(N)n1; experiment: as §4
# [33] = substrate: Nc1nc(/C(=N/O)C(=O)N[C@@H]2C(=O)N3C(C(=O)O)=C(/C=C4\CCN([C@@H]5CCNC5)C4=O)CS[C@H]23)ns1; experiment: as §4
# [34] = substrate: O=C(Cc1cccs1)N[C@@H]1C(=O)N2C(C(=O)[O-])=C(C[n+]3ccccc3)CS[C@H]12; experiment: as §4
protein,measurement,setting,value
"Beta-lactamase (Serratia marcescens), P18539 (protein) MTKMNRCAALIAALILPTAHAAQQQDIDAVIQPLMKKYGVPGMAIAVSVDGKQQIYPYGVASKQTGKPITEQTLFEVGSLSKTFTATLAVYAQQQSKLSFKDPASHYLPDVRGSAFDGVSLLNLATHTSGLPLFVPDDVTNNAQLMAYYRAWQPKHPAGSYRVYSNLGIGMLGMIAAKSLDQPFIQAMEQGMLPALGMSHTYVQVPAAQMANYAQGYSKDDKPVRVNPGPLDAESYGIKSNARDLIRYLDANLQQVKVASVARRWPRRTSVITSAGAFTQDLMWENYPYPVKLSRLIEGNNAGMIMNGTPATAITPPQPELRAGWYNKTGSTGGFSTYAVFIPAKNIAVEMLANKWFPNDDRVEAAYHIIQALEKR",Km,[1],570 µM
same,kcat,[1],< 0.05 s⁻¹
same,Km,[2],2.1 µM
same,kcat,[2],19 s⁻¹
same,Km,[3],> 800 µM
same,kcat,[3],< 0.55 s⁻¹
same,Km,[4],320 µM
same,kcat,[4],< 2.7 s⁻¹
same,Km,[5],14 µM
same,kcat,[5],840 s⁻¹
same,Km,[6],680 µM
same,kcat,[6],2000 s⁻¹
same,kcat/Km,[7],< 88 M⁻¹ s⁻¹
same,kcat/Km,[8],9e+06 M⁻¹ s⁻¹
same,kcat/Km,[9],< 690 M⁻¹ s⁻¹
same,kcat/Km,[10],< 8400 M⁻¹ s⁻¹
same,kcat/Km,[11],6e+07 M⁻¹ s⁻¹
same,kcat/Km,[12],3.1e+06 M⁻¹ s⁻¹
"Class A carbapenemase KPC-2 (Escherichia coli), A8DS27 (protein) MSLYRRLVLLSCLSWPLAGFSATALTNLVAEPFAKLEQDFGGSIGVYAMDTGSGATVSYRAEERFPLCSSFKGFLAAAVLARSQQQAGLLDTPIRYGKNALVPWSPISEKYLTTGMTVAELSAAAVQYSDNAAANLLLKELGGPAGLTAFMRSIGDTTFRLDRWELELNSAIPGDARDTSSPRAVTESLQKLTLGSALAAPQRQQFVDWLKGNTTGNHRIRAAVPADWAVGDKTGTCGVYGTANDYAVVWPTGRAPIVLAVYTRAPNKDDKHSEAVIAAAARLALEGLGVNGQ",Km,[13],230 µM
same,kcat,[13],0.38 s⁻¹
same,Km,[14],30 µM
same,kcat,[14],60 s⁻¹
same,Km,[15],540 µM
same,kcat,[15],12 s⁻¹
same,Km,[16],340 µM
same,kcat,[16],110 s⁻¹
same,Km,[17],510 µM
same,kcat,[17],390 s⁻¹
same,kcat/Km,[18],1700 M⁻¹ s⁻¹
same,kcat/Km,[19],2e+06 M⁻¹ s⁻¹
same,kcat/Km,[20],22000 M⁻¹ s⁻¹
same,kcat/Km,[21],320000 M⁻¹ s⁻¹
same,kcat/Km,[22],770000 M⁻¹ s⁻¹
"Beta-lactamase (Klebsiella oxytoca), Q8RT60 (protein) MIKSSWRKIAMLAAAVPLLLASGALWASTDAIHQKLTDLEKRSGGRLGVALINTADNSQILYRGDERFAMCSTSKVMAAAAVLKQSESNKEVVNKRLEINAADLVVWSPITEKHLQSGMTLAELSAATLQYSDNTAMNLIIGYLGGPEKVTAFARSIGDATFRLDRTEPTLNTAIPGDERDTSTPLAMAESLRKLTLGDALGEQQRAQLVTWLKGNTTGGQSIRAGLPESWVVGDKTGAGDYGTTNDIAVIWPEDHAPLILVTYFTQPQQDAKNRKEVLAAAAKIVTEGL",Km,[23],140 µM
same,kcat,[23],0.018 s⁻¹
same,Km,[24],40 µM
same,kcat,[24],1100 s⁻¹
same,Km,[25],550 µM
same,kcat,[25],88 s⁻¹
same,Km,[26],1000 µM
same,kcat,[26],59 s⁻¹
same,Km,[27],32 µM
same,kcat,[27],230 s⁻¹
same,Km,[28],100 µM
same,kcat,[28],700 s⁻¹
same,kcat/Km,[29],130 M⁻¹ s⁻¹
same,kcat/Km,[30],2.8e+07 M⁻¹ s⁻¹
same,kcat/Km,[31],160000 M⁻¹ s⁻¹
same,kcat/Km,[32],59000 M⁻¹ s⁻¹
same,kcat/Km,[33],7.2e+06 M⁻¹ s⁻¹
same,kcat/Km,[34],7e+06 M⁻¹ s⁻¹
